Test results taken from publication PMC8904041, “High-Level Production of Isoleucine and Fusel Alcohol by Expression of the Feedback Inhibition-Insensitive Threonine Deaminase in Saccharomyces cerevisiae” (Applied and Environmental Microbiology, 2022).

What was measured:
[1] = molecular target: T1, threonine deaminase (Ilv1), wild-type (Saccharomyces cerevisiae, UniProt P00927); experiment: biochemical; settings: read-out: GDH-coupled TD activity assay with purified Ilv1; 1.8-fold activation at 5 mM Va
T1 sequence (P00927 46-576): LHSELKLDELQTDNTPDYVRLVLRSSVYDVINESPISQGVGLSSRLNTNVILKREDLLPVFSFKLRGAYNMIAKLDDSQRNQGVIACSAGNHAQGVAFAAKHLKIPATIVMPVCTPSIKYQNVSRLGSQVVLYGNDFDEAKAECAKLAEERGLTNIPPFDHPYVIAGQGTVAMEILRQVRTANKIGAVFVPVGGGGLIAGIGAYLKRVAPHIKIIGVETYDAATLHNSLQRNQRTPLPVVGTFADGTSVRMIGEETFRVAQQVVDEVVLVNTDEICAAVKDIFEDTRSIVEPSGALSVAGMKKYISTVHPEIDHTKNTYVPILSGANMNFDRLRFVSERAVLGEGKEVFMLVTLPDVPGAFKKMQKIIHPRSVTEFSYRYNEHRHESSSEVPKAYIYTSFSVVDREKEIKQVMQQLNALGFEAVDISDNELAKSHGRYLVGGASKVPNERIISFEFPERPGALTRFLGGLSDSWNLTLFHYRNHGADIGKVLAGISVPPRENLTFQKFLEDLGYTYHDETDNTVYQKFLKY

[2] = molecular target: T1, threonine deaminase (Ilv1), wild-type; experiment: GDH-coupled NADH oxidation assay of TD activity with purified recombinant Ilv1; format: biochemical
purified protein = substrate: C[C@@H](O)[C@H](N)C(=O)O; experiment: purified protein; format: biochemical, Saccharomyces cerevisiae; settings: pyridoxal-5'-phosphate

| Molecule | fold induction at 5000 µM [1] | IC50 [2] [µM] | K0.5 (purified protein) [mM] | kcat (purified protein) [s⁻¹] | kcat/Km (purified protein) [M⁻¹ s⁻¹] |
| --- | --- | --- | --- | --- | --- |
| CC(C)[C@H](N)C(=O)O [valine] | 1.8 |  |  |  |  |
| CC[C@H](C)[C@H](N)C(=O)O [isoleucine] |  | 270 ± 9 |  |  |  |
| threonine deaminase (Ilv1), wild-type (Saccharomyces cerevisiae S288C) (protein, recombinant Ilv1 lacking the N-terminal 45 amino acid residues (mitochondrial localization signal), expressed in E. coli BL21(DE3)) LHSELKLDELQTDNTPDYVRLVLRSSVYDVINESPISQGVGLSSRLNTNVILKREDLLPVFSFKLRGAYNMIAKLDDSQRNQGVIACSAGNHAQGVAFAAKHLKIPATIVMPVCTPSIKYQNVSRLGSQVVLYGNDFDEAKAECAKLAEERGLTNIPPFDHPYVIAGQGTVAMEILRQVRTANKIGAVFVPVGGGGLIAGIGAYLKRVAPHIKIIGVETYDAATLHNSLQRNQRTPLPVVGTFADGTSVRMIGEETFRVAQQVVDEVVLVNTDEICAAVKDIFEDTRSIVEPSGALSVAGMKKYISTVHPEIDHTKNTYVPILSGANMNFDRLRFVSERAVLGEGKEVFMLVTLPDVPGAFKKMQKIIHPRSVTEFSYRYNEHRHESSSEVPKAYIYTSFSVVDREKEIKQVMQQLNALGFEAVDISDNELAKSHGRYLVGGASKVPNERIISFEFPERPGALTRFLGGLSDSWNLTLFHYRNHGADIGKVLAGISVPPRENLTFQKFLEDLGYTYHDETDNTVYQKFLKY |  |  | 40 ± 2.2 | 75 ± 4.1 | 1870 |
| threonine deaminase (Ilv1), H480Y variant (Saccharomyces cerevisiae S288C; H480Y) (protein, recombinant Ilv1 lacking the N-terminal 45 amino acid residues (mitochondrial localization signal), expressed in E. coli BL21(DE3)) LHSELKLDELQTDNTPDYVRLVLRSSVYDVINESPISQGVGLSSRLNTNVILKREDLLPVFSFKLRGAYNMIAKLDDSQRNQGVIACSAGNHAQGVAFAAKHLKIPATIVMPVCTPSIKYQNVSRLGSQVVLYGNDFDEAKAECAKLAEERGLTNIPPFDHPYVIAGQGTVAMEILRQVRTANKIGAVFVPVGGGGLIAGIGAYLKRVAPHIKIIGVETYDAATLHNSLQRNQRTPLPVVGTFADGTSVRMIGEETFRVAQQVVDEVVLVNTDEICAAVKDIFEDTRSIVEPSGALSVAGMKKYISTVHPEIDHTKNTYVPILSGANMNFDRLRFVSERAVLGEGKEVFMLVTLPDVPGAFKKMQKIIHPRSVTEFSYRYNEHRHESSSEVPKAYIYTSFSVVDREKEIKQVMQQLNALGFEAVDISDNELAKSYGRYLVGGASKVPNERIISFEFPERPGALTRFLGGLSDSWNLTLFHYRNHGADIGKVLAGISVPPRENLTFQKFLEDLGYTYHDETDNTVYQKFLKY |  |  | 42 ± 2.4 | 75 ± 3.6 | 1780 |
